Source: patent US20230151108A1 (UCB, published 2023)
One block for each binder: values may come before it.

Legend:
[1] = target: T1, human CD9, full-length, expressed on cells (human, UniProt P21926 2-228); assay: binding to cells expressing full-length CD9 (selection; method not described)
T1 construct: also called Tetraspanin-29
T1 sequence: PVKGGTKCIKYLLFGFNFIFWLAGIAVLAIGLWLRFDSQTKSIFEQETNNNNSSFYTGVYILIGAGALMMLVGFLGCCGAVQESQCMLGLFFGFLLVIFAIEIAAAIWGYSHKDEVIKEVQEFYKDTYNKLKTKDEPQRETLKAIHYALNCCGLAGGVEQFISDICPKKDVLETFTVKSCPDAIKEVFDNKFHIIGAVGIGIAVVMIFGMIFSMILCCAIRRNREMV

[2] = target: T2, CD137 peptide P1 (CRD1)-human Fc fusion protein (human, UniProt Q07011 25-68); assay: BLI (Octet RED384), CD137 CRD peptide-Fc on AHC biosensors, Fab-Y at 10 µg/mL; CRD inferred from the peptide binding profile
T2 construct: Made in Expi293F cells and used as conditioned medium, captured on anti-hIgG Fc biosensors; not shown: human Fc tag at the C-terminus
T2 chain: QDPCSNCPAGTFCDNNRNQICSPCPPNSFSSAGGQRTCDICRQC
Description: DNA sequences coding for each peptide (as shown in Table 7) were ordered from Twist Bioscience in a mammalian expression vector with a human Fc tag at the C-terminus. Each plasmid was used to transfect Expi293F™ cells (Gibcon™) to generate the different peptide-human Fc fusion proteins. For transfections, 850 μl of Expi293F™ cells ([…]) were plated in 48-well blocks and transfected with 3 μg of DNA using the ExpiFectamine™ 293 Transfection Kit (ThermoFisher) following the manufacturer's instructions. Cells were incubated in a 37° C., 5% CO₂ environment with shaking at 225 rpm. After 6 days, cells were pelleted (1000×g, 10 min) and the conditioned medias containing each of the peptides were harvested, quantitated and diluted to 1.7 μg/mL in Expi293™ Expression Medium (ThermoFisher). The conditioned medias were used for binding assessment to our panel of antibodies using the Octet® RED384 System (FortéBio) at room temperature with anti-hIgG Fc Capture (AHC) Biosensors (FortéBio). Firstly, an array of 8 sensors was dipped in kinetics buffer (PBS, 0.1% BSA, 0.02% Tween 20) for 180 seconds to provide a baseline signal. […]

binding result [1]: binds
B1: anti-CD9 Fab-Y 7272 (Fab, V domains shown)
VH: QSLEESGGRLVTPGTPLTLTCTVSGFSLSSYAMGWVRQAPGKGLEWIGAIGSITATGYARWAKGRFSISKTSTTVDLKMTSPTTEDTATYFCAREIYVGSAYAFDIWGPGTLVTVSS
VL: AYDMTQTPASVEVAVGDTVTIKCQASQSISNYLAWYQQKPGQPPKLLIYLASTLASGVPSRFKGSGSGTEFTLTISDLECADAATYYCQQGYIDNVNKGFGGGTEVVVK
notes: Tested as Fab-Y: a Fab whose CH1 is joined by a peptide linker to the GCN4 peptide (clone 7P14P); also called VR7272

binding result [2]: binds
B2: anti-CD137 Fab-Y 8475 (Fab, V domains shown)
VH: QSVEESGGRLVTPGTPLTLTCTVSGFSLSTYAMSWVRQAPGKGLEWIGAIWSGGTTDYTSWAKGRFTISKASTTVDLKITSPTTEDTATYFCVRMAVIFNAYTFDSWGPGTLVTVSS
VL: AYDMTQTPSSVSAAVGGTVTIKCQASQNIYSYLAWYQQKPGQRPKLLIYGASTLASGVPSRFKGSGSGTDFTLTISDLECDDAATYYCQQGHSSGNVGNNVFGGGTEVVVK
notes: Tested as Fab-Y: a Fab whose CH1 is joined by a peptide linker to the GCN4 peptide (clone 7P14P); also called VR8475
